The text below walks through data of US5958748, “DNA coding for serine/threonine kinase” (dated 1999).

The target in the experiment is fused protein of GAL4 DNA binding domain and mouse ATF4 leucine zipper domain (amino acids 298 to 349 in the … (mouse, UniProt P04386)). The experiment in a line: yeast two-hybrid, colony formation on histidine-, tryptophan-, leucine- medium. How it is done:
The site to which ZIP-kinase and ATF4 bind was determined using yeast two-hybrid system. First, variants of mouse ZIP-kinase were prepared: 1) amino acids 278 to 448 of ZIP-kinase (ZIP-kinase 278–448); 2) leucine zipper domain of ZIP-kinase (amino acids 398 to 448) (ZIP-kinase LZ); and 3) a variant of ZIP-kinase in which valine and leucine in the leucine zipper domain were substituted with alanine (ZIP-kinase LA). Each of these variants was designed to produce a chimeric protein with GAL4 trans activating domain, and DNA coding for said chimeric protein was inserted into pACT2 and introduced into yeast strain Y190 together with pAS2-1-ATF4 LZ. The strain was cultivated on histidine+, tryptophan–, leucine–, and histidine–, tryptophan–, leucine– selective media.

B1: ZIP-kinase LA (variant of mouse ZIP-kinase in which valine and leucine in the leucine zipper domain were substituted with alanine) as chimeric protein with … (enzyme)
chain: MSTFRQEDVEDHYEMGEELGSGQFAIVRKCQQKGTGMEYAAKFIKKRRLPSSRRGVSREEIEREVSILREIRHPNIITLHDVFENKTDVVLILELVSGGELFDFLAEKESLTEDEATQFLKQILDGVHYLHSKRIAHFDLKPENIMLLDKHAASPRIKLIDFGIAHRIEAGSEFKNIFGTPEFVAPEIVNYEPLGLEADMWSIGVITYILLSGASPFLGETKQETLTNISAVNYDFDEEYFSSTSELAKDFIRRLLVKDPKRRMTIAQSLEHSWIKVRRREDGARKPERRRLRAARLREYSLKSHSSMPRNTSYASFERFSRVLEDVAAAEQGLRELQRGRRQCRERVCALRAAAEQREARCRDGSAGLGRDLRRLRTELGRTEALRTRAQEEARAALLGAGGLKRRLCRLENRYDALAAQAAAEVQFARDLVRAAEQERLQAECGVR
Turning to B1, the binding result was “no binding”.
